These results are taken from article PMC3700536 (Nature communications, 2013).

Assay [1] concerns the target GST-Nck1 SH3-3 (UniProt P16333). The experiment in a line: SPR. On the technique in general: SPR reads the build-up and loss of mass on a sensor chip optically.
In assay [2] the target is T1, purified β2-chimaerin (UniProt P52757-1 1-468).
T1 sequence: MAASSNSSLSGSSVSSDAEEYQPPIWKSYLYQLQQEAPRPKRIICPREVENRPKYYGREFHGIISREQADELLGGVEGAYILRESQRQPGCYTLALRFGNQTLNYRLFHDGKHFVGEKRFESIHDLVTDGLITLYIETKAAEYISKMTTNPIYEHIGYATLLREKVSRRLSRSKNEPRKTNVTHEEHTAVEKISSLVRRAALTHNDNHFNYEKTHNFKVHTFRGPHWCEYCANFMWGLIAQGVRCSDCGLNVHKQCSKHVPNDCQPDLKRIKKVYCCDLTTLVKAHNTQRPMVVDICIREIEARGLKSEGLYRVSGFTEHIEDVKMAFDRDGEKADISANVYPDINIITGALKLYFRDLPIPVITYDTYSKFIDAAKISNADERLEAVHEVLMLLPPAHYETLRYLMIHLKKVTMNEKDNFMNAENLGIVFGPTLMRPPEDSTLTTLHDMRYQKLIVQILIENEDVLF
The experiment in a line: co-sedimentation.

For “WT-β2-chim peptide (β2-chimaerin amino acids 34–59)”, the Kd (as a rule, the concentration at which binding is half-saturated) in assay [1] stood at 18 µM.

B1: Nck1 SH3-3 (purified third SH3 domain of Nck1) (domain or fragment)
chain: QVLHVVQALYPFSSSNDEELNFEKGDVMDVIEKPENDPEWWKCRKINGMVGLVPKNYVTVMQN
In assay [2], B1 showed a Kd of 1.7 µM.
